From the nanobody polyreactivity screen of Harvey et al. (2022)

Test: yeast display, Sf9 membrane polyspecificity reagent, FACS + sequencing; frameworks hold sequencing errors
How it was run: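 Nanobodies came from a synthetic yeast display library in Saccharomyces cerevisiae BJ5465, induced with galactose for 36–48 hours and stained for 1 hour at 4 °C with 10% biotinylated, detergent-solubilized Sf9 membrane reagent. Cells were enriched on streptavidin microbeads and then FACS-sorted, with low and high (top ~1%) gates set on anti-HA fluorescence for expression and streptavidin fluorescence for reagent binding. Each polyreactivity label reflects the gate a clone came from. Genes were amplified by colony PCR, sequenced by MiSeq 2 × 250 and filtered by CDR length.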

Row | Sequence | polyreactivity (PSR sort gate)
1 | QGQLVESGGGLVQAGGSLRLSCAASGRIFNRNAMGWYRQAPGKERELVAAITRGGRTNYADSVKGRFTISRDNAQNTVYLQMNSLKPEDTAVYYCAAAYYGSHGRYDYWGQGTQVTVSS | high polyreactivity
2 | QVQHVESGGGLVQAGGSLRLSCAASGSTFHLYAIGWYRQAPGKEREFVAAIRGRGGNTYADSVKGRFTISRDNAKNTVYLQMNSVKPEDTAVYSCAAPLLRDLRSPYSYNYWGQGTQVTVSS | low polyreactivity
3 | QVQLVESGGGLVQAGGSLRLSCAASGIIFGPYAMGWYRQAPGKEWELVAAITWSGGGTYYADSVKGRFTISRDNAKNTVYLQMNSLKPEDTAVYYCAKYFPAGYYYWGQGTQVTVSS | low polyreactivity
4 | QVQLVESGGGLVQAGGSLRLSSAASGIIFRRYAMGWYRQAPGKERELVAAMSWSGGSTYYADSVKGRFTISRDNAKNTVYLQMNSLKPEDTAVYYCAAAAYTRDEYDYWGQGTQVTVSS | high polyreactivity
5 | QVQLVESGGGLVQAGGSLRLSCAASGRTFRYYGMGWYRQAPGKERELVAAISWSGGSTYYADSVKGRYTISRDNAKNSVYLQMNSLKPEDTAVYYCAADGQYYYGFDYWGQGTQVTVSS | high polyreactivity
6 | QVQLVESGGGLVQAGGSLRLSCAASGIIFKSYAVGWYRQAPGKERELVAAISSGGSTNYADSVKGRFTISRDNAKNTVYLQMNSLKPEDTAVYYCAKRYTATEWHGERDYWGQGTQVTVSS | high polyreactivity
7 | QVQLVESGGGLVQAGGSLRLSCAASGYTFQSYAMAWYRQAPWKERELVAAIRYSGGSTYADSVKGRFTISRDNAKNTVYLQMNSLKPEDTAVYYCAARSNSLLFDYWGQGTQVTVSS | low polyreactivity
8 | QVQLVESGGGLVQAGGSLRLTCAASGSIFTAYTMGWYRQAPGKERDLVAAITERGGSTYYADSVKGRFTISRDNAKNTVYLQMNRMKPEDSAVYYCAASTLKDIYLWFRVDYWGQGTHVTVSS | low polyreactivity
9 | QVQLVESGGGLVQAGGSLRLSCAASGFIFGFYAMGGYRQAPGKERELVAAISWSGGSTYYADSVKGRFTISRDNAKNTVYLQMNSLKPEDTAVYYCAAYFYYLDDAVTYDYWGQGTQVTVSS | low polyreactivity
10 | QVQLVESGGGLVQAGGSLRLSCAASGIIFRGYVMGWYRQAPGKERELVAAISTSGGRTSYADSVKGRFTISRDNAKNTVYLQMNSLKPEDTAVYYCAADSGYRYYTKSVGYDYWGQGTQVTVSS | high polyreactivity
11 | QDQLVDSGGGLVQAGGSLSLSCAASGYILDYYAMGWSRQAPGKERELVAAISYRGDSTYYADSVKGRFTISRDNEKNTVYLQMNSLKPEDTAVYYCNAGYFTRAQYEYDYWGQGSQVTVSS | high polyreactivity
12 | QVQLVDSGGGLVQAGGSLRLSCDASGSILAQYAMGWYRQAPGKEREFVAAISRRGVRTNYADSVKGRFTISRDNAKNTDYLQMNSLKHEDTAVYYCAAALYTPSLNSAFDYWGQGTQVTVSS | high polyreactivity
13 | QVQLVESGGGLVQAGGSLRLSSAASGITFLTNAMGWYRQAPGKERELVAAISGRGTRTYYADSVKGRFTISRDNAKKTVFLQMNRLKPEDTAVYYCAAVRRPVHYPYDYWGQGNQVTVSS | high polyreactivity
14 | QVQLVESGGRLVQAGGSLRLSCAASGFIFKYYAMGWYRQAPGKEREFVAAITWSGSSTNYADSVKGRFTISRDNAKNTVYLQMNSLKPEDTAVYYCNADRKYYKYDYWGQGTQVTVSS | high polyreactivity
15 | QVQLVESGGGLVQAGGTLRLSCAASGSTFGYNAMGWYRQAPGKERELVARITSSGGSTYYADSVKGRFTISRDNAKNTVYLQMNSLKPEDTAVYYCAAGYPYRAVYRYYYWGQGTQVTVSS | high polyreactivity
16 | QVQLVESGGGLVQAGGSLRLSCAASGLFFSYYAMGWYRQAPGKERELVAAINSGGSTYYADSVKGRFTISRDNAKNTVYLQMNSLKPEDTAVYYCAAHLWYHGHLFDYWGQGTQVTVSS | high polyreactivity

Row | Sequence | polyreactivity (PSR sort gate)
17 | QVQLVESGGGLVQAGGSLRLSCAASGFIFSENAMGLYRPAPGKERELVAAISDAGGSTYYADSVKGRFTISRDNAKNTVYLQMNSLKPEDTAVYYCNAVYHPKGPSGYGYWGQGTQVTVSS | low polyreactivity
18 | QVQLVESGGGLVQAGGSLRLSCAASGRTFVVNAMGWYRQAPGKERELVAAITRRGGITYYADSVKGRFTISRDNAKNTVYLQMNSLKPEDTAVYYCAADRSYYPDTRTTYGYNYWGQGTQVTVSS | low polyreactivity
19 | QVQLVESGGGLVQAGGSLRLSCAASGIIYAYYAMGWYRLAPGKEREWVAGISSSGITNYADSVKGRFTISRDNAKNTVYLQMNSLKPEDTAVYSCATDWYYWRHFYWVRRGVRYYYWGQGTQVTVSS | high polyreactivity
20 | QVQLVESGGGLVQAGGSRRLSCAASGRTSTYYAMGWYRQAPGKERELVAVITRGGSTYYADSVKGRFTISRDNAKNTVYLQMNSLKPEDTAVSYCNADGRVQRKYDYWGQGTQVTVSS | high polyreactivity
21 | QVQLVESGGGLVQAGGSLRLICAASGRTFWSYARGWSRQAPGKERQLVAAIRTSDGITYYADSVKGRFTISRDTAKNTVYLQMNSLKPEDTAVYYCAAENWYKYDYWGQGTQVTVSS | low polyreactivity
22 | QVQLVESGGGLVQAGGSLRLSCAASGSTFDWYVMGWNRQAPGKETELVAAINQGSGSTYYADSVKGRFTISRDNAKNPVYLQMNSLKPEDTAVYYCAADRYGAGYLYWPYDYWGQGTQVTVSS | low polyreactivity
23 | QVQLVESGGGLVQAGGSLRLSTAASGSTLWYNDMGWFRKAPGKERELVASITSDGGSSTYADSVKGRFTISRDNEKNTVYLQMNSLKPEDTAVYYCAADWPIVQYDYWGQGTQVTVSS | low polyreactivity
24 | QVQLVESGGGLVQAGGSLRLSCAASGRTYYYNAMGWYRQAPGKERELVAVISWDDGSTYYADSVKGRFTISRDKAMNSVYLQLNSLKPEDTAVYYCAAYDYLDYADDYWGQGTQVTVSS | low polyreactivity
25 | QVQLVESGGGLVQAGGSLRLSCAASGFIFLYAMGWSRQAPRKERELVAAISWSDTSTYYADSVKGRFTISRDNAKNTVYLQMNSLIPEDTAVYFCNAETWNYGDFDYWGQGTQVTVSS | high polyreactivity
26 | QVQLVESGGGLVQAGGSLRLSGAASGRIFYYNALGWYRPAPGKEREFVAAITWSGTSTNYADSLKGRFTISRDNAKNTVYLQMNSLKPEDTAVYYCAAQLRNSSRTYYRSGYWGQGTQVTVSS | high polyreactivity
27 | QVQLVESGGGLVQAGGSLRLSCAASGLTFGYNAMGWYRQAPGKERELVAAITYGGGRTYYADSVKGRFTISRDNAMNTVYLQMNSLKPEDPAVYYCNVVWKAYAEYDYWGQGTQVTVSS | high polyreactivity
28 | QVQLVESGGGLVQAGGSLRLICAASGRIFRRNVMGWYRQAPGKDRELVAAIRGTGSTTYADSVKGRFTISRDNAKNTVYLQMNSLKPEDTAVYYCNAYKGQTGGGGRYGYWGQGTQVTVSS | high polyreactivity
29 | QVQLVESGGGLVQAGGSLRLSCAASGFIFRWYAMGWYRQAPGKERELVAAISSGATTNYADSVKGRFTISRDNAKNTVYLQMNSLKPEDTAVYYCAAAHSYYGHYYYWGQGTQVTVSS | high polyreactivity
30 | QVQLVESGGGLVQAGGSLRLSCAASGSTFVPYAMGWYRQAPGKERELVAAINIGGRTNYADSVKGRFTISRDNAKNTVYLQMNSLKPEDTAVYYCAAEWGYYARSQYYYWGQGTQVTVSS | low polyreactivity
31 | QVQLVESGGGLVQAGGSLRLSCADSGFTFYVYTMGWYRQAPAKERELVAAITWSGGSTYYADSVKGRFTISRDNAKNTVYLQMNSLKPEDTAVYYCNRVGYWVGHDSWGQGTQVTVSS | high polyreactivity
32 | QVQLVESGGGLVQAGGSLRLSCAASGITFPWYAMGWYRQAPGKERELVAAINLAGNTNYADSVKGRFTISRDNAKNNVYLQMNSLKPEDTSVYYCAARWRYKYTLGYWGQGTQVTVSS | high polyreactivity
